Test results from publication doi:10.1101/2021.01.25.428038 (bioRxiv, 2021).

Molecular target: the molecule itself
Assay: bead aggregation assay

B1: hTMIGD1-Fc (extracellular domain of hTMIGD1, AA 1-222, fused to the Fc-part of human IgG) (Fc fusion)
chain: VLTVNGKTENYILDTTPGSQASLICAVQNHTREEELLWYREEGRVDLKSGNKINSSSVCVSSISENDNGISFTCRLGRDQSVSVSVVLNVTFPPLLSGNDFQTVEEGSNVKLVCNVKANPQAQMMWYKNSSLLDLEKSRHQIQQTSESFQLSITKVEKPDNGTYSCIAKSSLKTESLDFHLIVKDKTVGVPIE
binding result: binds
